The record followed here is patent US20080182978A1, “ANTI-NGF ANTIBODIES AND METHODS USING SAME” (RINAT NEUROSCIENCE CORP, priority 2002, published 2008).

“Also recorded” adds a separate entry of the source.

The target of one experiment is T1, NT3 (Homo sapiens, UniProt P20783).
T1 sequence (P20783 139-257): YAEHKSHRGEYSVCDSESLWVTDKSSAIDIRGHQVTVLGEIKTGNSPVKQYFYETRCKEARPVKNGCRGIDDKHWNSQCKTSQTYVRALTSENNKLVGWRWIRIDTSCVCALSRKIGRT
The experiment is described as follows: Mouse E17/18 trigeminal neuron survival assay, NT3. It counts as cell-based. The conditions noted are these: saturating NT3; antibody up to 200 nM; 48 hours. On the procedure:
The ability of antibody E3 to specifically block NGF activity was evaluated by measurement of the capacity of the antibody to inhibit survival of mouse E17/18 trigeminal neurons in vitro in the presence of saturating concentrations of NGF, the NGF-related neurotrophin NT3, or the NGF-unrelated neurotrophic factor, macrophage stimulating protein (MSP). The survival of mouse E17/18 trigeminal neurons is a sensitive assay to evaluate the NGF-blocking activity of anti-NGF antagonist antibodies because NGF is required to support survival of these neurons at higher concentrations than the level of NGF required to support survival of E13.5 TG neurons).
The survival assay was conducted as follows: time mated pregnant Swiss Webster female mice were euthanised by CO2 inhalation. The uterine horns were removed and the embryos (at embryonic day 17 or 18) were extracted and decapitated. The trigeminal and nodose ganglia were dissected and cleaned. The ganglia were then trypsinised, mechanically dissociated and plated at a density of 100-300 cells per well in defined, serum-free medium in 4-well plates (Greiner) coated with poly-L-ornithine and laminin.
E17/18 trigeminal neurons were grown either without added neurotrophic factors (negative control) or in the presence of saturating concentrations of human NGF (400 pM and 15 pM) (positive control); NT3 (400 pM); or MSP (600 pM). […]

The test system of experiment [1] is moderate to severe pain from osteoarthritis of the knee. Description: Clinical study, osteoarthritis of the knee: WOMAC 3.1 index. The note with it: day 1 to day 28. It counts as in vivo, human. The source says: Adult males and females (ages between 35 to 65) who were experiencing moderate-to-severe pain from osteoarthritis of the knee, but were in otherwise overall good health were enrolled in the study. During the screening period, patients were required to discontinue arthritis medications such as NSAIDs, cyclooxygenase type-2 (COX-2) inhibitors, and opiates at least 14 days prior to administration of anti-NGF antibody E3. Patients were allowed to use rescue medications of acetaminophen or ibuprofen with some restrictions based on laboratory findings or past medical history. […] Thirty-four patients were admitted to the study and assessed as inpatients for on Study Days -1, 1 and 2. […] The volume for each patient was calculated based on the subject's Day -1 weight and assigned dose level, ranging from 3-6 cc for cohort 1, 10-20 cc for cohort 2, 30-60 cc for cohort 3, and 100 cc for cohort 4 and cohort 5. […] Each domain was scored by determining the means of the VAS scores of the component questions. The total WOMAC 3.1TM was scored by determining the means of the scores from each of the 3 domains. […] Outcome was assessed as change from baseline (pain level during screening period), expressed as pain intensity difference (PID) or summed pain intensity difference (SPID) for different dose levels. […]

B1: E3: humanized, affinity matured anti-NGF antagonist antibody; variable regions SEQ ID NO:1 and 2; human IgG2a (A330P331 to S330S331), kappa (antibody, V domains shown)
VH: QVQLQESGPGLVKPSETLSLTCTVSGFSLIGYDLNWIRQPPGKGLEWIGIIWGDGTTDYNSAVKSRVTISKDTSKNQFSLKLSSVTAADTAVYYCARGGYWYATSYYFDYWGQGTLVTVS
VL: DIQMTQSPSSLSASVGDRVTITCRASQSISNNLNWYQQKPGKAPKLLIYYTSRFHSGVPSRFSGSGSGTDFTFTISSLQPEDIATYYCQQEHTLPYTFGQGTKLEIKRT
modifications: human IgG2a constant (A330S/P331S) and kappa constant missing
Consider B1, for which the “survival of E17/18 trigeminal neurons promoted by NT3” value with NT3 is on record as “had no effect; also recorded: did not inhibit”. For the same molecule, the “WOMAC pain, physical function and stiffness score” value in experiment [1] (100 μg/kg) is on record as “reduced significantly”. Moreover, the WOMAC score result in experiment [1] (single i.v. dose) was “reduced WOMAC score”.
